According to patent US20240390512A1, “METHODS OF TREATING CHEMOTHERAPY-RESISTANT CANCER WITH AN ANTIBODY-DRUG CONJUGATE” (DAIICHI SANKYO COMPANY, LIMITED, priority 2021, published 2024):

B1: rG055: rat anti-human CDH6 monoclonal antibody produced by hybridoma rG055; variable regions SEQ ID NO: 20 and 25 (antibody, listed as Rattus norvegicus, V domains shown)
VL: DVQMTHSPSYLAASPGESVSISCKTSKNISNYLVWYQQKPGEAYKLLIYSGSTLQSGTPSRFSGSGSGTDFTLTIRSLEPEDFGLYFCQQYYEKPFTFGSGTKLEIKRA
VH: EVQLQESGPGLVRPSQSLSLSCSVTDYSITSNYWGWIRRFPGNKMEWMGYITYSGYTSYNPSLQSRISITRDTSKNQFFLQLNSVTAEDTATYYCARSINHGGYSYVVDAWGPGASVTVSS
B2: rG061: rat anti-human CDH6 monoclonal antibody produced by hybridoma rG061; variable regions SEQ ID NO: 40 and 45 (antibody, listed as Rattus norvegicus, V domains shown)
VL: DVQMTQSPSYLAASPGESVSISCKATKSISNYLAWYQQKPGEAYKVLIYSGSTLQSGTPSRFSGSGSGTDFTLTIRSLEPEDFGLYSCQQYYEKPLTFGSGTKLEIKRA
VH: EVQLQESGPGLVKPSQSLSLTCSVTGYSITTYYWGWIRKFPGNKMEWMGYISYSGRTSYNPSLKSRMSITRDASKNQFFLQLNSVTTDDTATYYCARSPINHGGYWYFDFWGPGTMVTVSS
B3: rG056: rat anti-human CDH6 monoclonal antibody produced by hybridoma rG056; variable regions SEQ ID NO: 30 and 35 (antibody, listed as Rattus norvegicus, V domains shown)
VL: DVQMTQSPSSLAASPGESVSISCRATKSIGIYLAWYQQKPGKTFKLLIYSGSTLQSGTPSRFSGSGSGTDFTLTIRSLEPEDFGLYFCQQFYENPFTFGSGTKLEIRRA
VH: EVQLQESGPGLVKPSQSLSLTCSVTDYSITTYFWGWIRKFPGNKMEWMGYMSYRGGTSYNPSLKSRISITRDTSKNQFFLQLNSVTTEDTATYYCARCPNYGGHSLVFDYWGQGVMVTVSS
B4: rG019: rat anti-human CDH6 monoclonal antibody produced by hybridoma rG019; variable regions SEQ ID NO: 10 and 15 (antibody, listed as Rattus norvegicus, V domains shown)
VL: DIQMTQSPSLLSASVGDRVTLNCKASQNIYKNLAWYQQKLGEGPKLLIYDANTLQTGIPSRFSGSGSGSDFTLTISSLQPEDVATYFCQQYYSGWAFGGVTNLELKRA
VH: QVQLQQSGAELVKPGSSVKISCKASGYTFTRNFMHWIKQQPGNGLEWIGWIYCGDGETEYNQKFNGKATLTADRSSSTAYMELSRLTSEDSAVYFCARGVYGGFAGGYFDFWGQGVMVTVSS

How the values were obtained:
[1] = target: T1, human CDH6 (full-length and EC domain deletion mutants) (Homo sapiens, UniProt P55285); assay: Epitope analysis of rat anti-CDH6 antibody by flow cytometry using domain deletion mutants; type: binding; conditions: for binding to full-length hCDH6: flow cytometry, transfected 293α cells, antibody 20 nM; for epitope on hCDH6: from domain deletion mutant binding
T1 construct: each one of the five EC domains could be deleted from full-length human CDH6; 3xFLAG (deletion mutants only, from the vector p3×FLAG-CMV-9); expressed in transfected cells; host or cells: 293α cells
T1 sequence (P55285 54-790): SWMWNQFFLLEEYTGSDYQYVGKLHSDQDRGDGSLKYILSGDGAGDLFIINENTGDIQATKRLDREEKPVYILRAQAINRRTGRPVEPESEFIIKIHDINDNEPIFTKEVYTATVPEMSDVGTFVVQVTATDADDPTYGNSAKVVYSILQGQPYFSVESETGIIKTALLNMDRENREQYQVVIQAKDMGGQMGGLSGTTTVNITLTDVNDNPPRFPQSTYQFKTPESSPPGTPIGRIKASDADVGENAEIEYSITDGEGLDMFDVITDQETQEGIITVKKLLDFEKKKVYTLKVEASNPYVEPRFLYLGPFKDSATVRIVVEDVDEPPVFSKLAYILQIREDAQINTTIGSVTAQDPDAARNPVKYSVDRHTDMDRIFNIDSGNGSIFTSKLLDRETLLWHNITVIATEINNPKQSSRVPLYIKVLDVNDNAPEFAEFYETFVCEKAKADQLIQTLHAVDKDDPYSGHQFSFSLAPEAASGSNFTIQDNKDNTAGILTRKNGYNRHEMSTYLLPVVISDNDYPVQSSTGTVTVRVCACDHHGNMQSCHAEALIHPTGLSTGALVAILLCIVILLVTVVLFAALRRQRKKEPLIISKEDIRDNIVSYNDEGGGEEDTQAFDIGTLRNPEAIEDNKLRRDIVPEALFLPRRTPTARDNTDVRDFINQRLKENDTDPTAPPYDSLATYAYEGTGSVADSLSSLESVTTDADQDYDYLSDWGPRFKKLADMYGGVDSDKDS
From the text: (§1) The full-length extracellular region of human CDH6 has five extracellular domains, EC1 (SEQ ID NO: 2), EC2 (SEQ ID NO: 3), EC3 (SEQ ID NO: 4), EC4 (SEQ ID NO: 5), and EC5 (SEQ ID NO: 6). A gene to be expressed such that each one of the five EC domains could be deleted from full-length human CDH6 was synthesized by GeneArt, and incorporated into p3×FLAG-CMV-9 vectors for mammalian expression (Sigma-Aldrich Co. LLC) according to a method known to a person skilled in the art in order to produce an expression vector for each domain deletion mutant lacking any one of EC1 to EC5.
(§2) The epitopes to which the rat anti-human CDH6 antibodies bound were identified by flow cytometry analysis using a 293α cell line transfected with each EC domain deletion vector. Using Lipofectamine 2000 (Thermo Fisher Scientific Inc.), each domain deletion mutant expression vector produced in Reference Example 2)-2-1, or pcDNA3.1-hCDH6 for the expression of full-length human CDH6 was transiently introduced into a 293α cell line, which was a cell line derived from HEK293 cells by stable transfection with integrin αv and integrin […] expression vectors. The cells were cultured overnight under conditions of 37° C. and 5% CO2, and thereafter, a cell suspension was prepared. The suspension of the transfected 293α cells was centrifuged, and a supernatant was then removed. Thereafter, the cells were suspended by the addition of each of the 4 rat anti-CDH6 monoclonal antibodies (clone Nos: rG019, rG055, rG056 and rG061), which had been prepared in Reference Example 1)-7, or rat IgG control (R&D Systems, Inc.) (final concentration: 20 nM). The cells were left standing at 4° C. for 1 hour. The cells were washed twice with PBS supplemented with 5% FBS, and then suspended by the addition of Anti-Rat IgG (whole molecule)-FITC antibody produced in rabbit (Sigma-Aldrich Co. LLC) that had been 50-fold diluted with PBS supplemented with 5% FBS. The cells were left standing at 4° C. for 1 hour. The cells were washed twice with PBS supplemented with 5% FBS, followed by detection using a flow cytometer (Canto II; BD Biosciences). The data was analyzed using FlowJo (Tree Star, Inc.). In the histograms of FIGS. 2-1 to 2-6, the abscissa depicts FITC fluorescence intensity indicating the amount of the antibody bound, and the ordinate depicts cell count. […] Fluorescence intensity is enhanced when the antibody binds to full-length hCDH6 or each EC domain deletion mutant on the surface of cells. The rat IgG control binds to none of the transfected cells.

[2] = target: T2, human CDH6 (full-length and EC domain deletion mutants) (Homo sapiens, UniProt P55285, DEL487-608); assay: as above; type: binding; conditions: flow cytometry; transfected 293α cells; antibody 20 nM
T2 construct: each one of the five EC domains could be deleted from full-length human CDH6; 3xFLAG (deletion mutants only, from the vector p3×FLAG-CMV-9); expressed in transfected cells; host or cells: 293α cells
T2 sequence (P55285 with tags, fused parts or gaps DEL487-608): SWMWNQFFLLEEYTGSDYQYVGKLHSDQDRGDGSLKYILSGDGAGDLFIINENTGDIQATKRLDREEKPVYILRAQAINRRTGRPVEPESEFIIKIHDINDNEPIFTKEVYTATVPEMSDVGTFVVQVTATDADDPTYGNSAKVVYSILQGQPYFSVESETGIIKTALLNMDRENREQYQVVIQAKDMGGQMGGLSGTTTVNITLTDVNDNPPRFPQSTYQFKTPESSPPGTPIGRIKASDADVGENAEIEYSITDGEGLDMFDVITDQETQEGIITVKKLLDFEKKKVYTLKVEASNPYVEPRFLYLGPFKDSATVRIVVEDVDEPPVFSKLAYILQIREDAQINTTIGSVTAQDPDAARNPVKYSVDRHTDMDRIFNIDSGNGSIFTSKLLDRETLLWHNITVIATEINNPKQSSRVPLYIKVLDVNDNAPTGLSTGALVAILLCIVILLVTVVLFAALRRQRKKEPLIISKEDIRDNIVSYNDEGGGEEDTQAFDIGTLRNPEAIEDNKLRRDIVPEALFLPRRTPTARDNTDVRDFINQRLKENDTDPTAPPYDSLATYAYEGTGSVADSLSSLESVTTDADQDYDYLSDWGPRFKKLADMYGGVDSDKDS
From the text: as §1, §2

Molecule	binding to full-length hCDH6 [1]	epitope on hCDH6 [1]	binding to EC5 deletion mutant [2]
B1	bind	EC3	bind
B2	bind	EC3	bind
B3	bind	EC3	bind
B4	bind	EC3	bind
